Measurements taken from PMC3170320, “Minimal Antizyme Peptide Fully Functioning in the Binding and Inhibition of Ornithine Decarboxylase and Antizyme Inhibitor” (PLoS ONE, 2011).

T1: human antizyme inhibitor, wild type (human, UniProt O14977 1-448)
T1 sequence (looked up): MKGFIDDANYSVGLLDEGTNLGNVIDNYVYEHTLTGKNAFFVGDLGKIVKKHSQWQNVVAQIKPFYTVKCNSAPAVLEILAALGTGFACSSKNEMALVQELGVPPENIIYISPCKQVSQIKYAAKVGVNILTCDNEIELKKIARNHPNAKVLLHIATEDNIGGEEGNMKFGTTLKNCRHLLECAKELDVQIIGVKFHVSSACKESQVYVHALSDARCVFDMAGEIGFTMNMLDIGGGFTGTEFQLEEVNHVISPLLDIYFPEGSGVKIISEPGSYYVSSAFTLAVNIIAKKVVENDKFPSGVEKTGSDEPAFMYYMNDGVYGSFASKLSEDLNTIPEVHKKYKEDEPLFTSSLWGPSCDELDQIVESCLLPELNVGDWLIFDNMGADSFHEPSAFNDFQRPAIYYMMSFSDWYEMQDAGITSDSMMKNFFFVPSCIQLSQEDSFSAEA

B1: human antizyme peptide AZ_95-228 (domain or fragment)
chain: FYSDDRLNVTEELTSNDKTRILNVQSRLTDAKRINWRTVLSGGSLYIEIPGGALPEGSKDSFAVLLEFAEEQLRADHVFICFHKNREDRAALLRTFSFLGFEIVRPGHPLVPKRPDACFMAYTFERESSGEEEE
B2: human antizyme peptide AZ_87-124 (domain or fragment)
chain: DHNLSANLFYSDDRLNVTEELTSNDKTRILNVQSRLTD
B3: human antizyme peptide AZ_100-228 (domain or fragment)
chain: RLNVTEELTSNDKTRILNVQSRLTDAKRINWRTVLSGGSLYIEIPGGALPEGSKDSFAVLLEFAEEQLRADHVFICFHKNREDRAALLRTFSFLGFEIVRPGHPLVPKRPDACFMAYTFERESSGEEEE
B4: human antizyme, wild type (natural protein)
chain: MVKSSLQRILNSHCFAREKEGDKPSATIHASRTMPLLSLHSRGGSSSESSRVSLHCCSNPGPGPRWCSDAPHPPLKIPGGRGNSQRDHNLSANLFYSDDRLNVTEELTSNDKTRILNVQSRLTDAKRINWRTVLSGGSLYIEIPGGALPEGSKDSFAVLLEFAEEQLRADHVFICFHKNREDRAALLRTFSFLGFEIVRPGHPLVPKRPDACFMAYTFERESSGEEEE
B5: human antizyme peptide AZ_95-135 (domain or fragment)
chain: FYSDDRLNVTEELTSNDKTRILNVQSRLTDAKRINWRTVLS
B6: human ornithine decarboxylase, wild type (enzyme, UniProt P11926 1-461, looked up)
chain: MNNFGNEEFDCHFLDEGFTAKDILDQKINEVSSSDDKDAFYVADLGDILKKHLRWLKALPRVTPFYAVKCNDSKAIVKTLAATGTGFDCASKTEIQLVQSLGVPPERIIYANPCKQVSQIKYAANNGVQMMTFDSEVELMKVARAHPKAKLVLRIATDDSKAVCRLSVKFGATLRTSRLLLERAKELNIDVVGVSFHVGSGCTDPETFVQAISDARCVFDMGAEVGFSMYLLDIGGGFPGSEDVKLKFEEITGVINPALDKYFPSDSGVRIIAEPGRYYVASAFTLAVNIIAKKIVLKEQTGSDDEDESSEQTFMYYVNDGVYGSFNCILYDHAHVKPLLQKRPKPDEKYYSSSIWGPTCDGLDRIVERCDLPEMHVGDWMLFENMGAYTVAAASTFNGFQRPTIYYVMSGPAWQLMQQFQNPDFPPEVEEQDASTLPVSCAWESGMKRHRAACASASINV
notes: ornithine decarboxylase (ODC, EC 4.1.1.17), human, wild type; Kd was fitted with an A+B to AB model; also called ODC
B7: human antizyme peptide AZ_95-176 (domain or fragment)
chain: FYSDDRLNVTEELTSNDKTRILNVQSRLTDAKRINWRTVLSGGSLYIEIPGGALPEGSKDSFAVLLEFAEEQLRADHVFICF
B8: human antizyme peptide AZ_100-176 (domain or fragment)
chain: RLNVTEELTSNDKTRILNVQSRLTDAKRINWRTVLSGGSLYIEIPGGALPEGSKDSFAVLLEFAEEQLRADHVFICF
B9: human antizyme peptide AZ_95-124 (domain or fragment)
chain: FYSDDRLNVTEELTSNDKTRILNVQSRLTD

Experiments:
[1] = molecular target: B6; experiment: cell-based or functional assay
[2] = molecular target: T1, human antizyme inhibitor, wild type; experiment: cell-based or functional assay
[3] = molecular target: T1, human antizyme inhibitor, wild type; experiment: AUC; sedimentation velocity, 20°C; AZI fixed at 0.3 mg/mL, AZ or AZ peptide 0.05 to 0.24 mg/mL (molar ratio AZ/AZI 0.4 to 2.4); 30 mM Tris-HCl pH 7.4, 25 mM NaCl; global fit to the A+B to AB hetero-association model in SEDPHAT; conditions: both partners purified
[4] = molecular target: B6; experiment: AUC; sedimentation velocity, 42,000 rpm, 20°C; ODC fixed at 0.3 mg/mL, AZ or AZ peptide 0.015 to 0.2 mg/mL (molar ratio AZ/ODC 0.12 to 2); 30 mM Tris-HCl pH 7.4, 25 mM NaCl; global fit to the A+B to AB hetero-association model in SEDPHAT; conditions: both partners purified
[5] = molecular target: the molecule itself; experiment: as above

Binder | IC50 of inhibition of ODC enzyme activity (ODC 0.19 µM), without AZI [1] [nM] | IC50 of inhibition of ODC enzyme activity with ODC pre-incubated with equimolar AZI (m1 as the enzyme) [2] [nM] | Kd [3] [nM] | Kd [4] [nM] | binding result [5]
B1 | 160 | 570 | 24 ± 0.2 | 1500 ± 10 | 
B2 | 520 | 1550 | 160 ± 1 | 12700 ± 280 | 
B3 | 210 | 620 | 68 ± 0.7 | 5300 ± 30 | 
B4 | 160 | 500 | 27 ± 0.1 | 710 ± 5 | 
B5 | 510 | 1590 |  | 10300 ± 70 | 
B6 |  |  |  |  | binds
B7 | 200 | 680 | 60 ± 4 | 5600 ± 40 | 
B8 | 430 | 1420 |  | 10800 ± 70 | 
B9 | 650 | 1980 | 280 ± 2 | 18600 ± 130 | 
